{
  "source": "patent US20110033951",
  "about": "“ASSAY METHOD AND KIT FOR NUCLEIC ACID BINDING PROTEIN” (Hiroshima University, published 2011)",
  "key": {"NF-kappaB p50 [1]": {"biological_target": "T1, NF-kappaB p50 (Homo sapiens, UniProt P19838 P19838:1-433)", "T1 sequence (P19838 1-433, one chain of several)": "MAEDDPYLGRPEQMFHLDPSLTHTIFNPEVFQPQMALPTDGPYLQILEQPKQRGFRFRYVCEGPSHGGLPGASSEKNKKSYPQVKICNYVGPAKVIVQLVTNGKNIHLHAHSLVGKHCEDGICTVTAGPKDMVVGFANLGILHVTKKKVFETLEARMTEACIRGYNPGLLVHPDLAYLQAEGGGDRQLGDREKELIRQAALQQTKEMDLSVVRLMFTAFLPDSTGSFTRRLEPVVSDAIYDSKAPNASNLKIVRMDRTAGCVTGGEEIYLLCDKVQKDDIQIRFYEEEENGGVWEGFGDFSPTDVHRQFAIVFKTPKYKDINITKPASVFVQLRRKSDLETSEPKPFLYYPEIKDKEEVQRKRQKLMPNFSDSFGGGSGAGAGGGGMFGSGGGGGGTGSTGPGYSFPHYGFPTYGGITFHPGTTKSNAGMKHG", "test": "competition; SP1 decoy did not affect NF-kB/DNA signal", "conditions": "tags: Promega; chain copies: 2", "protocol": "(§1) A mixed solution of 31F/42 and 05C/08 (40 fmol each), 800 fmol of the decoy (NF01/02 or SP01/02), a solution of a protein mixture (2.5 pmol of recombinant human SP1 and 0.125 pmol of recombinant human NFκB p50) were mixed into a reaction solution (10 mM HEPES-NaOH pH 7.9, 50 mM KCl, 0.1 mM EDTA, 5 mM DTT, 10% glycerol, 0.05% IGEPAL CA-630, 15 μL) and reacted at 25° C. for 30 minutes. A mixed solution of 32D/41 and 06B/07 (80 fmol each) was added thereto, and 50 μL of the resulting mixture was then reacted at 25° C. for 120 minutes. The fluorescence values of fluorescein and Cy3 were measured using a fluorescence plate reader Ultra (Tecan Group Ltd.). The fluorescein was excited at 485 nm, and its fluorescence was measured at 535 nm. The Cy3 was excited at 535 nm and its fluorescence was measured at 595 nm."}, "SP1 [2]": {"biological_target": "T2, SP1 (Homo sapiens, UniProt P08047 P08047:2-785)", "T2 sequence (P08047 2-785, one chain of several)": "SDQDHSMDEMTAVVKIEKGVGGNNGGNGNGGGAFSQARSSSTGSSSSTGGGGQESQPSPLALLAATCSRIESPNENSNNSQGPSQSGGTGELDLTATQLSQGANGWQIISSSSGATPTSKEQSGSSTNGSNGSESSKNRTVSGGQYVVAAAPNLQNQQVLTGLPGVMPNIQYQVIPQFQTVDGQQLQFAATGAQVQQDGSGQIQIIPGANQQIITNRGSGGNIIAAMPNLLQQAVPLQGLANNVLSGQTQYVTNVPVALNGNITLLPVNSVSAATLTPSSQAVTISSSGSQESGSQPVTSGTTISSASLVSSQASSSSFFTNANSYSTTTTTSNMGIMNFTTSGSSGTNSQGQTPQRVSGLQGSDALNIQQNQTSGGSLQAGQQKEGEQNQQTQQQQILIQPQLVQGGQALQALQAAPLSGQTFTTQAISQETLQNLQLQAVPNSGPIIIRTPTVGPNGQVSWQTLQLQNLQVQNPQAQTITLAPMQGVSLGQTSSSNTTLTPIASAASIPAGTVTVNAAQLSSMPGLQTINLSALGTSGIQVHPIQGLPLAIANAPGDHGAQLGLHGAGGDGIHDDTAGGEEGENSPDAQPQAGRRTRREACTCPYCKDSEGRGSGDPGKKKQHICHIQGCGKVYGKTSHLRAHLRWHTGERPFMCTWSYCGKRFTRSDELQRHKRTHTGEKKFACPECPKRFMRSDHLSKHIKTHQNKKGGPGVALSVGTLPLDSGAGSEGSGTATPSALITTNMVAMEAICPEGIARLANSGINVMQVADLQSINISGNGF", "test": "competition; decoy lowered only SP1/DNA signal", "conditions": "tags: Promega", "protocol": "as §1"}, "NF-kappaB p50 [3]": {"biological_target": "T1, NF-kappaB p50", "test": "competition; decoy restored strand exchange", "conditions": "tags: Promega; chain copies: 2", "protocol": "(§2) The fluorescence value was measured using a real-time PCR apparatus Rotor-Gene 2000 (Corbett Life Science)."}, "SP1 [4]": {"biological_target": "T2, SP1", "test": "competition; NF-kB decoy did not affect SP1/DNA signal", "conditions": "tags: Promega", "protocol": "as §1"}, "NF-kappaB p50 [5]": {"biological_target": "T1, NF-kappaB p50", "test": "competition; decoy without NF-kB site did not compete", "conditions": "tags: Promega; chain copies: 2", "protocol": "as §2"}},
  "data": [
    {"binder": "SP01/02 decoy (dsDNA) DNA 1: TCGAGCGGGGCGGGGCGACGAA DNA 2: TTCGTCGCCCCGCCCCGCTCGA", "values": [
      {"measurement": "binding result", "setting": "NF-kappaB p50 [1]", "result": "no binding"},
      {"measurement": "binding result", "setting": "SP1 [2]", "result": "binds"}
    ]},
    {"binder": "NFcpt decoy (NF01/02) (dsDNA) DNA 1: GCACTAGGGACTTTCCGCCACG DNA 2: CGTGGCGGAAAGTCCCTAGTGC", "values": [
      {"measurement": "binding result", "setting": "NF-kappaB p50 [3]", "result": "binds"},
      {"measurement": "binding result", "setting": "SP1 [4]", "result": "no binding"}
    ]},
    {"binder": "APcpt decoy (dsDNA) DNA 1: GGTGTCATGAGTCAGCTCGGAG DNA 2: CTCCGAGCTGACTCATGACACC", "values": [
      {"measurement": "binding result", "setting": "NF-kappaB p50 [5]", "result": "no binding"}
    ]}
  ]
}
